This assay has as its target murine SCI/MIP1-α Variant 3 (murine) (UniProt P10855). In words: chromatographic techniques, molecular weight estimate.

The values below come from patent US20010010935A1.

Consider “murine SCI/MIP1-α Variant 3 (from UniProt P10855) (ligand)”, for which the estimated molecular weight (self-association) is 8 kD.
